Data taken from patent US20240239894A1 (AstraZeneca / MedImmune, published 2024).
Residue numbers refer to the chain shown, from its start.

Legend:
huB7-H1 = molecular target: T1, huB7-H1 (human, UniProt Q9NZQ7 19-238); test: ELISA
T1 construct: Sourced antigen; construct not described; also called Human B7-H1

huB7-H2 = molecular target: T2, huB7-H2 (human, UniProt O75144 19-258); test: ELISA
T2 construct: Sourced antigen; construct not described; also called Human B7-H2
T2 sequence (looked up): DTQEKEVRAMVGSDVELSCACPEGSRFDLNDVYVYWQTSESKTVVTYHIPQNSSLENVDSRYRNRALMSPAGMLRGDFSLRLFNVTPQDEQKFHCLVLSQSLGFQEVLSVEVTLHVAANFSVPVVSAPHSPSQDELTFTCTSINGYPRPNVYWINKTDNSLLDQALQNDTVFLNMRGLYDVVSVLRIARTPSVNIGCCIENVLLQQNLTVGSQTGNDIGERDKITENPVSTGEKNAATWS

huB7-H3 = molecular target: T3, huB7-H3 (human, UniProt Q5ZPR3 29-461, limits assumed); test: ELISA
T3 construct: Sourced antigen; construct not described; also called Human B7-H3
T3 sequence (looked up): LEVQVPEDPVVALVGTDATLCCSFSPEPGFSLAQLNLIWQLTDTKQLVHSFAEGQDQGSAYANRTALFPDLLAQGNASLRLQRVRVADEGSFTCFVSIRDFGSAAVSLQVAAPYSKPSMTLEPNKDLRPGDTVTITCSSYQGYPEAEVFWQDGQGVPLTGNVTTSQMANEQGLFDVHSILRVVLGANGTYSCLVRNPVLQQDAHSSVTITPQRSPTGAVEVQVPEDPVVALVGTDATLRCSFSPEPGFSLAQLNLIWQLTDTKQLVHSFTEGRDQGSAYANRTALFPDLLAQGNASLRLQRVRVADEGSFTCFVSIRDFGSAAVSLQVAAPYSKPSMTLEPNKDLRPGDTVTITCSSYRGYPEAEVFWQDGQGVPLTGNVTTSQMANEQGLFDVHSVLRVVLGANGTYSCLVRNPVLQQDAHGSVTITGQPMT

huBTN1A1 = molecular target: T4, huBTN1A1 (human, UniProt Q13410 27-242, limits assumed); test: ELISA
T4 construct: Sourced antigen; construct not described; also called Human BTN1A1
T4 sequence (looked up): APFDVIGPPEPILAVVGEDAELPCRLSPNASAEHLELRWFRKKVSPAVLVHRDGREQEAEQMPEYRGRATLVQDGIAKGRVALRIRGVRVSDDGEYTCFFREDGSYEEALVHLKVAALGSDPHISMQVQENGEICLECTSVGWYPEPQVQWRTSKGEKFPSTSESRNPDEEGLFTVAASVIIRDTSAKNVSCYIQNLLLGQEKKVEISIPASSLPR

huHHLA2 = molecular target: T5, huHHLA2 (human, UniProt Q9UM44 23-344); test: ELISA
T5 construct: Sourced antigen; construct not described; also called Human HHLA2
T5 sequence (looked up): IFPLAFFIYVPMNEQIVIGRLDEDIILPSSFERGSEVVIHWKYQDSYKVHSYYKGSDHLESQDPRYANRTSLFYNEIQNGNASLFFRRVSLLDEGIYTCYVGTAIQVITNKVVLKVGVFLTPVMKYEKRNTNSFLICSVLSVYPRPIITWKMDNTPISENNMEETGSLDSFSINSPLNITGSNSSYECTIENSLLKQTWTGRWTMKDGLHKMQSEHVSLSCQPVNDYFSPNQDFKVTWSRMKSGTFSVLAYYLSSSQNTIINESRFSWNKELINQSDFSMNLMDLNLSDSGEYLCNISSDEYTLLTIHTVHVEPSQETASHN

huBTN3A2 = molecular target: T6, huBTN3A2 (human, UniProt P78410 30-248, limits assumed); test: ELISA
T6 construct: Sourced antigen; construct not described; also called Human BTN3A2

huBTN2A1 = molecular target: T7, huBTN2A1 (human, UniProt Q7KYR7 29-248, limits assumed); test: ELISA
T7 construct: Sourced antigen; construct not described; also called Human BTN2A1
T7 sequence (looked up): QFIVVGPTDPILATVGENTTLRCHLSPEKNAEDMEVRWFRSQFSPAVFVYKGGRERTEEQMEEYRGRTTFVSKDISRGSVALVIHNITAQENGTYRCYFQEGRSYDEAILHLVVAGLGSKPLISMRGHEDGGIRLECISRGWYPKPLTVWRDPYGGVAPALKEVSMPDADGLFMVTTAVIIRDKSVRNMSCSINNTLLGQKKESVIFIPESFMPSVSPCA

huBTNL3 = molecular target: T8, huBTNL3 (human, UniProt Q6UXE8 18-237, limits assumed); test: ELISA
T8 construct: Sourced antigen; construct not described; also called Human BTNL3
T8 sequence (looked up): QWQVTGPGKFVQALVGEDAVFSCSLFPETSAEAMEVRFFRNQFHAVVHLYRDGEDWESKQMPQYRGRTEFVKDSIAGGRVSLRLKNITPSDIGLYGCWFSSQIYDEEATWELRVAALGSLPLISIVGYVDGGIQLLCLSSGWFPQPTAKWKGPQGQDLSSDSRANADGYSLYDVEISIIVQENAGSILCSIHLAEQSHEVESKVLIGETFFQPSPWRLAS

human B7-H4 on cells = molecular target: T9, human B7-H4 on cells (human, UniProt Q7Z7D3 25-282); test: cell-based or functional assay
T9 sequence: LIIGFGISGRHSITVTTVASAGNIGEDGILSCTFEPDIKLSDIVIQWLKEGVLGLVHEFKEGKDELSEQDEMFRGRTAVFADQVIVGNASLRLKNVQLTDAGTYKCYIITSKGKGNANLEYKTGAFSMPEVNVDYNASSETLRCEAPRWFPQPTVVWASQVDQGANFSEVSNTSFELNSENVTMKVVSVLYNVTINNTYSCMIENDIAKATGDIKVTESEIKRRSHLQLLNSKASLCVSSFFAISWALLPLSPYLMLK

[1] = molecular target: T10, Murine B7-H4 ECD-Flag-His10 (monomeric) (mouse, UniProt Q7TSP5 25-257); test: Octet; summary table, repeats Table 9 (hIgG1-TM)
T10 construct: extracellular domain; also called FlagHis10 murine B7-H4
T10 sequence (looked up): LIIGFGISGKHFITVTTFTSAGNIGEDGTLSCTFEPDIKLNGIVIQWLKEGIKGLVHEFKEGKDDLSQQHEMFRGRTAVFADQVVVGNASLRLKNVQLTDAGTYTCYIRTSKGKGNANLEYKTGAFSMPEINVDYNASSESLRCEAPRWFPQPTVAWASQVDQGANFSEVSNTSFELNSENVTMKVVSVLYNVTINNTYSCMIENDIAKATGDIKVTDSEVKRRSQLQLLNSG

[2] = molecular target: T11, Human B7H4 ECD (SV), splice variant, 10His_FLAG (human); test: Octet; summary table, repeats Table 9 (hIgG1-TM)
T11 construct: also called B7-H4-SV

T1 sequence (Q9NZQ7 19-238 limits assumed): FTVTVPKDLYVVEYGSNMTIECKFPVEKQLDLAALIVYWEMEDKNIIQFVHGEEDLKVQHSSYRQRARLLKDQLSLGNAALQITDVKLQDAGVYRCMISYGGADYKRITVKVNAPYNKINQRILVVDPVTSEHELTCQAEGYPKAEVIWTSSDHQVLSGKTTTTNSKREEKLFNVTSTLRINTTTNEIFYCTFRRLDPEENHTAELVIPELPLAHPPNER
T6 sequence (P78410 30-248 limits assumed): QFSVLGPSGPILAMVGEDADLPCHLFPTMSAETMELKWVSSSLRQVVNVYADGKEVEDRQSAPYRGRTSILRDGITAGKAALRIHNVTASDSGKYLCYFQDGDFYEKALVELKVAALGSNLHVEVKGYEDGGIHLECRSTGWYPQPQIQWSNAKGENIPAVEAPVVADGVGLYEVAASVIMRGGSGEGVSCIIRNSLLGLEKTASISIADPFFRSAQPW

B1: ZY0EOB-F05 human IgG1-TM (antibody, V domains shown)
VH: QVQLQESGPGLVKPSQTLSLTCTVSDGSISSGGYYWSWIRQHPGKGLEWIGNIYYSGSTYYNPSLKSRVTISVDTSKNQFSLKLNSVTAADTAVYYCATEKALATVTPSGYENYYTVDVWGQGTTVTVSS
VL: DIQLTQSPSFLSASVGDRVTITCWASQGISSYLAWYQQKPGKAPKLLIYAASTLQSGVPSRFSGSGSGTEFTLTISSLQPEDFATYYCQHLNSYPLTFGGGTKVEIK
B1: no binding (huB7-H1); no binding (huB7-H2); no binding (huB7-H3). B1: no binding (huBTN1A1); no binding (huHHLA2); no binding (huBTN3A2). The binding result (huBTN2A1) was “no binding”, the binding result (huBTNL3) was “no binding” and the “ZAP % Viability, OVCAR4” value (human B7-H4 on cells) was 67%. For the same binder, the “ZAP % Viability, SKBR3” value (human B7-H4 on cells) was 84%, the Kd [1] was 25 nM and the Kd [2] was 174 nM.

B2: ZY0EQD-E02 human IgG1-TM (antibody, V domains shown)
VH: QVQLQQWGAGLLKPSETLSLTCAVYGGSFSGYYWNWIRQPPGKGLEWIGEINHSGSTSYNPSLKSRVTISVDTSKNQFSLKLSSVTAADTAVYYCARVLYNWNVDSWGQGTLVTVSS
VL: DIQMTQSPSSLSASVGDRVTITCRASQDIRNDVGWYQQKPGKAPKRLIYAASRLQSGVPSRFSGSGSGTEFTLTISSLQPEDFATYYCLQHNSYPRTFGQGTKVEIK
B2: no binding (huB7-H1); no binding (huB7-H2); no binding (huB7-H3). B2: no binding (huBTN1A1); no binding (huHHLA2); no binding (huBTN3A2). For the same binder, the binding result (huBTN2A1) was “no binding”, the binding result (huBTNL3) was “no binding” and the “ZAP % Viability, OVCAR4” value (human B7-H4 on cells) was 40%. The “ZAP % Viability, SKBR3” value (human B7-H4 on cells) was 48%, the “ZAP IC50 (M), OVCAR4” value (human B7-H4 on cells) was 2e-08 M and the “ZAP IC50 (M), SKBR3” value (human B7-H4 on cells) was 1e-08 M. It also gave a Kd [1] of 621 nM and a Kd [2] of 801 nM.

B3: ZY0EPQ-E02 human IgG1-TM (antibody, V domains shown)
VH: B2 VH with S58N, S70L, V98N, V104L
VL: B2 VL with D28G, V33L, K42R, A50V, R53S
B3: no binding (huB7-H1); no binding (huB7-H2); no binding (huB7-H3). B3: no binding (huBTN1A1); no binding (huHHLA2); no binding (huBTN3A2). For the same binder, the binding result (huBTN2A1) was “no binding”, the binding result (huBTNL3) was “no binding” and the “ZAP % Viability, OVCAR4” value (human B7-H4 on cells) was 46%. The “ZAP % Viability, SKBR3” value (human B7-H4 on cells) was 65%, the “ZAP IC50 (M), OVCAR4” value (human B7-H4 on cells) was 2e-08 M and the “ZAP IC50 (M), SKBR3” value (human B7-H4 on cells) was 4e-09 M. The Kd [1] was 396 nM and the Kd [2] was 1660 nM.

B4: ZY0EP0-C07 human IgG1-TM (antibody, V domains shown)
VH: QVQLVESGGVLVKPGGSLRLSCAASGFTLSDYYMSWIRQAPGMGLEWVSYISSSGSTIYYTDSVKGRFTISRDSAKNSLYLQMNSLRAEDTAVYYCARDGVGFDYWGQGTLVTVSS
VL: EIVLTQSPGTLSLFPGERATLSCRASQSVSSSYLAWYQQKPGQSPRLLIYAASSRATGIPDRFSGSGSGTDFTLTISRLEPEDFAVYYCQQYGSSPLYTFGQGTKLEIK
notes: also called ZY0EPO-C07
B4: no binding (huB7-H1); no binding (huB7-H2); no binding (huB7-H3). B4: no binding (huBTN1A1); no binding (huHHLA2); no binding (huBTN3A2). For the same binder, the binding result (huBTN2A1) was “no binding”, the binding result (huBTNL3) was “no binding” and the “ZAP % Viability, OVCAR4” value (human B7-H4 on cells) was 57%. For the same binder, the “ZAP % Viability, SKBR3” value (human B7-H4 on cells) was 72%, the “ZAP IC50 (M), OVCAR4” value (human B7-H4 on cells) was 1e-08 M and the “ZAP IC50 (M), SKBR3” value (human B7-H4 on cells) was 4e-09 M. It also gave a Kd [1] of 11 nM.
